Test system: T3 receptor (thyroid hormone receptor, GC2 pituitary cell nuclear extract) (Rattus norvegicus)
Test: pulldown
Details: equilibrium binding constant printed as 1.4x10^-9 M, ABCD assay, poly(dI-dC), 22 C, data not shown

Substance: G209-146 rat GH enhancer probe
- Kd: 1.4 nM

From patent US5534418
